Laboratory results from paper PMC10641686, “Fcγ receptor binding is required for maximal immunostimulation by CD70-Fc” (Frontiers in Immunology, 2023).
Where two headings read alike, the source gives them in different places. Blank lines part the entries; values can stand above or below the molecule they belong to.

How the values were obtained:
[1] = target: FcγRs (mouse (endogenous in C57BL/6 mice))
[2] = target: dimer of trimer CD70-Fc fusion protein (dtCD70-Fc) (mouse) (UniProt O55237); experiment: SDS-PAGE under non-reducing and reducing conditions; 5 ug purified protein on a 10% SDS-polyacrylamide gel, Coomassie blue; disulfide-linked dimer of the Fc fusion chain
[3] = target: T1, Recombinant mouse CD27-human Fc (mouse, UniProt P41272 24-182); experiment: SPR; apparent; Biacore T200, HBS-EP+; mouse CD27-human Fc captured on anti-human IgG coupled to a CM5 chip; CD70 fusion proteins (1.56, 6.25, 25 and 100 nM) injected at 30 ul/min; KD from ka and kd
T1 construct: CD27, mouse; Captured by anti-human IgG on the chip; no catalogue number is printed; also called CD27-Fc; mouse CD27 protein; source: bought: R&D systems
T1 sequence (looked up): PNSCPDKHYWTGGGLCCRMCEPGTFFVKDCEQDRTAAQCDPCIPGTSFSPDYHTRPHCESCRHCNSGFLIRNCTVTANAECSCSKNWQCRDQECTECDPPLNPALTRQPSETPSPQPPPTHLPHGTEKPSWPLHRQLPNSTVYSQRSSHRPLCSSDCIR

[4] = target: anti-CD27 mouse IgG1 (recombinant, from hybridoma AT124-1) (mouse); experiment: SPR; about 2000 RU of dtCD70-Fc or anti-CD27 immobilised on a CM5 chip by amine coupling; mouse FcRn (0, 0.8, 4, 20, 100, 500 nM) injected 3 min at 30 ul/min in HBS-EP+ pH 6; KD from steady-state binding levels
[5] = target: dimer of trimer CD70-Fc fusion protein (dtCD70-Fc) (mouse) (UniProt O55237); experiment: as above

OT-I T cell expansion in vivo during the primary response, Endo H treated dtCD70-Fc (wild-type Fc) against Endo H treated dtCD70-Fc(D265A) [1]: 3 fold
Molecule: Endo H treated dtCD70-Fc (from UniProt O55237 41-195; O55237 41-195; O55237 41-195) (Fc fusion)

stoichiometry N [2]: 2 | Kd [3]: 0.6 nM
Molecule: dimer of trimer CD70-Fc fusion protein (dtCD70-Fc) (from UniProt O55237 41-195; O55237 41-195; O55237 41-195)

Kd [4]: 49 nM | Kd [5]: 46 nM
B1: recombinant mouse FcRn (receptor)
chain: SETRPPLMYHLTAVSNPSTGLPSFWATGWLGPQQYLTYNSLRQEADPCGAWMWENQVSWYWEKETTDLKSKEQLFLEALKTLEKILNGTYTLQGLLGCELASDNSSVPTAVFALNGEEFMKFNPRIGNWTGEWPETEIVANLWMKQPDAARKESEFLLNSCPERLLGHLERGRRNLEWKEPPSMRLKARPGNSGSSVLTCAAFSFYPPELKFRFLRNGLASGSGNCSTGPNGDGSFHAWSLLEVKRGDEHHYQCQVEHEGLAQPLTVDLDSSARSS

Kd ([3]; both partners purified): 1.2 nM
B2: Soluble trimeric CD70 (tCD70) (ligand, mouse, UniProt O55237 41-195, looked up)
chain: SGLLSKQQQRLLEHPEPHTAELQLNLTVPRKDPTLRWGAGPALGRSFTHGPELEEGHLRIHQDGLYRLHIQVTLANCSSPGSTLQHRATLAVGICSPAAHGISLLRGRFGQDCTVALQRLTYLVHGDVLCTNLTLPLLPSRNADETFFGVQWICP
notes: CD70, mouse, extracellular domain S41-P195; Predicted chain MW 51.5 kDa; also called CD4 fusion protein; not shown: CD4 domains 3 and 4 (mouse), N-terminal, kept
